Results reported in publication PMC10452355, “Phosphoserine Aminotransferase Pathogenetic Variants in Serine Deficiency Disorders: A Functional Characterization” (Biomolecules, 2023).

Biological target: the molecule itself
Assay: SEC; Superdex 200 Increase 5/150 GL, 50 mM HEPES pH 7, 300 mM KCl, room temperature, 0.3 mL/min; loaded at 23 µM, eluting at around 7.5 µM; apparent mass against a calibration curve; self-association (dimer)

B1: phosphoserine aminotransferase (PSAT), wild type, human, PSAT beta (enzyme)
chain: MDAPRQVVNFGPGPAKLPHSVLLEIQKELLDYKGVGISVLEMSHRSSDFAKIINNTENLVRELLAVPDNYKVIFLQGGGCGQFSAVPLNLIGLKAGRCADYVVTGAWSAKAAEEAKKFGTINIVHPKLGSYTKIPDPSTWNLNPDASYVYYCANETVHGVEFDFIPDVKGAVLVCDMSSNFLSKPVDVSKFGVIFAGAQKNVGSAGVTVVIVRDDLLGFALRECPSVLEYKVQAGNSSLYNTPPCFSIYVMGLVLEWIKNNGGAAAMEKLSSIKSQTIYEIIDNSQGFYVCPVEPQNRSKMNIPFRIGNAKGDDALEKRFLDKALELNMLSLKGHRSVGGIRASLYNAVTIEDVQKLAAFMKKFLEMHQL
notes: human phosphoserine aminotransferase, splice form PSAT beta (the long form; PSAT alpha lacks 46 amino acids between V290 and S337); PLP-dependent homodimer; also called wt PSAT; WT; source: E. coli BL21(DE3) tuner, purified (IMAC, Talon superflow); not shown: His tag (from the IMAC purification on Talon)
stoichiometry N: 2
